The text below walks through data of the supplement of paper PMC7877785.

This data set is described as follows: self-splicing fitness, log relative to wild type (ln ratio); higher = more splicing; Tetrahymena group I intron in knt gene, E. coli kanamycin selection, DiMSum; sequences stand for … in CUCUCU…GGAGGGAAAAGUUAUCAGGCAUGCACCUGGUAGCUAGUCUUUAAACCAAUAGAUUGCAUCGGUUUAAAAGGCAAGACCGUCAAAUUGCGGGAAAGGGGUCAACAGCCGUUCAGUACCAAGUCUCAGGGGAAACUUUGAGAUGGCCUUGCAAAGGGUAUGGUAAUAAGCUGACGGACAUGGUCCUAACCACGCAGCCAAGUCCUAAGUCAACAGAUCUUCUGUUGAUAUGGAUGCAGUUCACAGACUAAAUGUCGGUCGGGGAAGAUGUAUUCUUCUCAUAAGAUAUAGUCGGACCUCUCCUUAAUGGGAGCUAGCGGAUGAAGUGAUGCAACACUGGAGCCGCUGGGAACUAAUUUGUAUGCGAAAGUAUAUUGAUUAGUUUUGGAGUACUCGUGGUCG
In a few lines: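 A randomised library covering all eight P1ex-region intron nucleotides was built with the intron in the knt kanamycin-resistance gene on pET-22b(+) and held in E. coli BL21(DE3). Cells were grown overnight at 37°C or 30°C on LB agar, with or without 25 μg/mL kanamycin, plus 100 μg/mL carbenicillin, 50 μM IPTG and 0.2% rhamnose, and pooled colonies were amplicon-sequenced on an Illumina HiSeq 2500. DiMSum fitness is the error-weighted combination of wild-type-normalised replicate fold changes, kanamycin versus none.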

± gives the uncertainty stated by the source.

Turning to CAGAAGCAAUAUUACGAACA, the “self-splicing fitness (ln)” value (30 °C) is -1.81 ± 0.18 and the “self-splicing fitness (ln)” value (37 °C) is -0.783 ± 0.17.
For CAGAAGCAAUAUUACGAAGA, the “self-splicing fitness (ln)” value by setting is: (30 °C) -3.8 ± 0.27; (37 °C) -2.85 ± 0.25.
On the same counts, the results for CAGAAGCAAUAUUACGAAUA are -2.43 ± 0.27 and -1.84 ± 0.24.
For CAGAAGCAAUAUUACGAGAG, the “self-splicing fitness (ln)” value was -2.78 ± 0.17 (30 °C) and -1.98 ± 0.19 (37 °C).
CAGAAGCAAUAUUACGAGCA: the “self-splicing fitness (ln)” value (37 °C) was -1.3 ± 0.38.
Take CAGAAGCAAUAUUACGAUAU: the “self-splicing fitness (ln)” value is, setting by setting: (30 °C) -3.56 ± 0.2; (37 °C) -2.53 ± 0.15.
The like results for CAGAAGCAAUAUUACGAUUG were, in that order, -1.92 ± 0.11 and -1.47 ± 0.12.
On the same counts, the results for CAGAAGCAAUAUUACGCACA are -1.56 ± 0.077 and -0.438 ± 0.087.
For the sequence CAGAAGCAAUAUUACGCACC, the “self-splicing fitness (ln)” value was -3.18 ± 0.41 (30 °C) and -2.1 ± 0.46 (37 °C).
The like results for CAGAAGCAAUAUUACGCCCA were, in that order, -1.97 ± 0.15 and -0.986 ± 0.16.
On the same counts, the results for CAGAAGCAAUAUUACGCGUA are -2.63 ± 0.27 and -1.69 ± 0.15.
As to CAGAAGCAAUAUUACGCUAC, the “self-splicing fitness (ln)” value (30 °C) is -0.828 ± 0.41.
As to CAGAAGCAAUAUUACGCUAG, the “self-splicing fitness (ln)” value (30 °C) is -2.82 ± 0.18 and the “self-splicing fitness (ln)” value (37 °C) is -1.73 ± 0.2.
On to CAGAAGCAAUAUUACGCUGG, for which the “self-splicing fitness (ln)” value runs as follows: (30 °C) -2.84 ± 0.15; (37 °C) -2.21 ± 0.15.
On the same counts, the results for CAGAAGCAAUAUUACGCUUG are -4.25 ± 0.16 and -2.99 ± 0.14.
On the same counts, the results for CAGAAGCAAUAUUACGGACC are -3.56 ± 0.48 and -2.5 ± 0.46.
The like results for CAGAAGCAAUAUUACGGCAU were, in that order, -3.35 ± 0.19 and -1.95 ± 0.15.
For CAGAAGCAAUAUUACGGGCA, the “self-splicing fitness (ln)” value is, setting by setting: (30 °C) -2.53 ± 0.16; (37 °C) -1.76 ± 0.18.
On the same counts, the results for CAGAAGCAAUAUUACGGGUC are -3.4 ± 0.29 and -2.55 ± 0.2.
The like results for CAGAAGCAAUAUUACGGGUU were, in that order, -3.12 ± 0.24 and -3.23 ± 0.21.
The like results for CAGAAGCAAUAUUACGUACU were, in that order, -1.83 ± 0.13 and -1.22 ± 0.12.
For the sequence CAGAAGCAAUAUUACGUAGG, the “self-splicing fitness (ln)” value is -0.872 ± 0.06 (30 °C) and 0.297 ± 0.1 (37 °C).
The like results for CAGCAGCAAUAUUACGAAGG were, in that order, -1.16 ± 0.11 and -1.05 ± 0.11.
Take CAGCAGCAAUAUUACGACAA: the “self-splicing fitness (ln)” value runs as follows: (30 °C) -3.11 ± 0.39; (37 °C) -1.67 ± 0.23.
The like results for CAGCAGCAAUAUUACGACAG were, in that order, -0.416 ± 0.073 and 0.533 ± 0.1.
The like results for CAGCAGCAAUAUUACGACUA were, in that order, -0.351 ± 0.068 and 0.43 ± 0.081.
Consider CAGCAGCAAUAUUACGAGUC, for which the “self-splicing fitness (ln)” value is -4.41 ± 0.29 (30 °C) and -2.24 ± 0.14 (37 °C).
As to CAGCAGCAAUAUUACGCCAG, the “self-splicing fitness (ln)” value was -0.865 ± 0.089 (30 °C) and 0.0215 ± 0.12 (37 °C).
The like results for CAGCAGCAAUAUUACGCGGA were, in that order, -2.58 ± 0.14 and -1.14 ± 0.11.
As to CAGCAGCAAUAUUACGGCGG, the “self-splicing fitness (ln)” value runs as follows: (30 °C) -1.93 ± 0.093; (37 °C) -1.5 ± 0.16.
On the same counts, the results for CAGCAGCAAUAUUACGUCGC are -3.31 ± 0.18 and -2.21 ± 0.21.
The like results for CAGCAGCAAUAUUACGUCUG were, in that order, -3.11 ± 0.14 and -2.85 ± 0.22.
The like results for CAGCAGCAAUAUUACGUGUU were, in that order, -4.61 ± 0.22 and -2.5 ± 0.13.
As for CAGCAGCAAUAUUACGUUUA, the “self-splicing fitness (ln)” value is -2.11 ± 0.12 (30 °C) and -2.02 ± 0.12 (37 °C).
Turning to CAGGAGCAAUAUUACGACAA, the “self-splicing fitness (ln)” value (37 °C) was -1.73 ± 0.41.
On to CAGGAGCAAUAUUACGAGUG, for which the “self-splicing fitness (ln)” value is, setting by setting: (30 °C) -2.51 ± 0.2; (37 °C) -1.95 ± 0.17.
Regarding CAGGAGCAAUAUUACGAUCU, the “self-splicing fitness (ln)” value (37 °C) was -2.45 ± 0.45.
Take CAGGAGCAAUAUUACGAUUG: the “self-splicing fitness (ln)” value runs as follows: (30 °C) -3.77 ± 0.28; (37 °C) -2.46 ± 0.23.
Regarding CAGGAGCAAUAUUACGCAUA, the “self-splicing fitness (ln)” value (37 °C) is -1.73 ± 0.33.
With CAGGAGCAAUAUUACGGAGG, the “self-splicing fitness (ln)” value was -2.02 ± 0.095 (30 °C) and -1.21 ± 0.12 (37 °C).
On the same counts, the results for CAGGAGCAAUAUUACGGGCU are -4.13 ± 0.39 and -2.17 ± 0.34.
As for CAGGAGCAAUAUUACGGGUU, the “self-splicing fitness (ln)” value runs as follows: (30 °C) -4.36 ± 0.25; (37 °C) -2.99 ± 0.19.
On the same counts, the results for CAGGAGCAAUAUUACGUAAU are -3.99 ± 0.47 and -2.78 ± 0.44.
The like results for CAGGAGCAAUAUUACGUAUA were, in that order, -4.26 ± 0.34 and -1.62 ± 0.21.
Turning to CAGGAGCAAUAUUACGUCCG, the “self-splicing fitness (ln)” value runs as follows: (30 °C) 0.726 ± 0.21; (37 °C) 0.304 ± 0.29.
On the same counts, the results for CAGGAGCAAUAUUACGUUGG are -2.44 ± 0.14 and -0.863 ± 0.14.
The like results for CAGUAGCAAUAUUACGAACA were, in that order, -3.3 ± 0.48 and -2.86 ± 0.41.
Take CAGUAGCAAUAUUACGAAGA: the “self-splicing fitness (ln)” value (37 °C) was -2.1 ± 0.41.
Consider CAGUAGCAAUAUUACGAAGG, for which the “self-splicing fitness (ln)” value (30 °C) was -1.25 ± 0.12 and the “self-splicing fitness (ln)” value (37 °C) is -1.8 ± 0.14.
For CAGUAGCAAUAUUACGAAUG, the “self-splicing fitness (ln)” value runs as follows: (30 °C) -1.36 ± 0.1; (37 °C) -0.492 ± 0.11.
Turning to CAGUAGCAAUAUUACGACGC, the “self-splicing fitness (ln)” value was -3.07 ± 0.38 (30 °C) and -0.25 ± 0.25 (37 °C).
For the sequence CAGUAGCAAUAUUACGACGU, the “self-splicing fitness (ln)” value is, setting by setting: (30 °C) -1.15 ± 0.14; (37 °C) -0.0577 ± 0.18.
The like results for CAGUAGCAAUAUUACGACUC were, in that order, -0.076 ± 0.18 and 0.539 ± 0.28.
Take CAGUAGCAAUAUUACGAGAG: the “self-splicing fitness (ln)” value runs as follows: (30 °C) -3.95 ± 0.24; (37 °C) -2.76 ± 0.19.
Consider CAGUAGCAAUAUUACGAGCU, for which the “self-splicing fitness (ln)” value was -3.07 ± 0.28 (30 °C) and 0.322 ± 0.19 (37 °C).
On the same counts, the results for CAGUAGCAAUAUUACGAUGG are -0.609 ± 0.077 and -0.119 ± 0.11.
Consider CAGUAGCAAUAUUACGCAGG, for which the “self-splicing fitness (ln)” value reads like this: (30 °C) -1.59 ± 0.096; (37 °C) -0.318 ± 0.11.
As for CAGUAGCAAUAUUACGCGUA, the “self-splicing fitness (ln)” value is -2.89 ± 0.27 (30 °C) and -1.64 ± 0.19 (37 °C).
The like results for CAGUAGCAAUAUUACGGAUA were, in that order, -1.58 ± 0.32 and -2.79 ± 0.38.
On the same counts, the results for CAGUAGCAAUAUUACGGGUC are -3.88 ± 0.37 and -1.32 ± 0.24.
On the same counts, the results for CAGUAGCAAUAUUACGGGUU are -2.49 ± 0.18 and -1.82 ± 0.2.
For the sequence CAGUAGCAAUAUUACGGUAC, the “self-splicing fitness (ln)” value runs as follows: (30 °C) -5 ± 0.45; (37 °C) -3 ± 0.27.
On the same counts, the results for CAGUAGCAAUAUUACGUCAA are -2.64 ± 0.14 and -2.59 ± 0.26.
On to CAGUAGCAAUAUUACGUCGU, for which the “self-splicing fitness (ln)” value (30 °C) is -2.6 ± 0.17 and the “self-splicing fitness (ln)” value (37 °C) is -2.44 ± 0.17.
On to CAGUAGCAAUAUUACGUGAU, for which the “self-splicing fitness (ln)” value runs as follows: (30 °C) -4.22 ± 0.34; (37 °C) -1.2 ± 0.15.
On the same counts, the results for CAGUAGCAAUAUUACGUGCG are -0.0402 ± 0.068 and 0.239 ± 0.088.
The like results for CAGUAGCAAUAUUACGUGCU were, in that order, -2.95 ± 0.19 and -1.84 ± 0.3.
On the same counts, the results for CAGUAGCAAUAUUACGUGGC are -2.97 ± 0.28 and -2.36 ± 0.29.
For CAGUAGCAAUAUUACGUUAA, the “self-splicing fitness (ln)” value by setting is: (30 °C) -2.74 ± 0.19; (37 °C) -3.5 ± 0.23.
The like results for CAGUAGCAAUAUUACGUUUA were, in that order, -3.19 ± 0.23 and -3.02 ± 0.25.
On the same counts, the results for CAUAAGCAAUAUUACGAAAU are -3.7 ± 0.2 and -2.68 ± 0.22.
On the same counts, the results for CAUAAGCAAUAUUACGAAUA are -1.84 ± 0.24 and -2.9 ± 0.43.
On to CAUAAGCAAUAUUACGAAUG, for which the “self-splicing fitness (ln)” value is -3.79 ± 0.23 (30 °C) and -2.32 ± 0.19 (37 °C).
On to CAUAAGCAAUAUUACGAGAA, for which the “self-splicing fitness (ln)” value (37 °C) was -2.27 ± 0.3.
CAUAAGCAAUAUUACGAUUA: the “self-splicing fitness (ln)” value is -1.64 ± 0.14 (30 °C) and -1.4 ± 0.14 (37 °C).
On the same counts, the results for CAUAAGCAAUAUUACGCAAA are -2.93 ± 0.44 and -2.46 ± 0.41.
For the sequence CAUAAGCAAUAUUACGCAUC, the “self-splicing fitness (ln)” value (37 °C) is -3.39 ± 0.43.
